Measurements from paper PMC5025174 (PLoS ONE, 2016).

Experiments:
human IGF1R ectodomain = molecular target: T1, human IGF1R ectodomain (Homo sapiens, UniProt P08069); assay: SPR; SEC-purified VHH monomers, 0.1-10 nM, over human IGF1R ectodomain amine-coupled to a CM5 chip (476 RU); 25°C, HBS-EP pH 7.4; 1:1 binding model; settings: both partners purified
T1 construct: human IGF1R, ectodomain; source: bought: R&D Systems

human ICAM-1 ectodomain = molecular target: T2, human ICAM-1 ectodomain (Homo sapiens, UniProt P05362); assay: SPR; SEC-purified VHH monomers, 0.5-200 nM, over human ICAM-1 ectodomain amine-coupled to a CM5 chip (1348 RU); 25°C, HBS-EP pH 7.4; 1:1 binding model; settings: both partners purified
T2 construct: human ICAM-1, ectodomain; source: bought: R&D Systems
T2 sequence (P05362 28-480): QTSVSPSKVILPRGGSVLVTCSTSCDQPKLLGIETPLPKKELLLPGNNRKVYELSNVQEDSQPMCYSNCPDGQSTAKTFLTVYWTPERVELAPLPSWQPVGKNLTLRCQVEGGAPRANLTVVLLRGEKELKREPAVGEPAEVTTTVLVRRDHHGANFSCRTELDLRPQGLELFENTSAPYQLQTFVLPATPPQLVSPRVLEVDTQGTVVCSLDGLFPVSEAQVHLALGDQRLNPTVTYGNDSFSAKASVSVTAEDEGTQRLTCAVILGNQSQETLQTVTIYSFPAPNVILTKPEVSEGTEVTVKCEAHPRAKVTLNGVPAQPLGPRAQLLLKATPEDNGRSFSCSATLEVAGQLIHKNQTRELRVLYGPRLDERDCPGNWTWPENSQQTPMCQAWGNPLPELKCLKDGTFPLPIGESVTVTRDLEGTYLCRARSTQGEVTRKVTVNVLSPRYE

T1 sequence (P08069 741-935): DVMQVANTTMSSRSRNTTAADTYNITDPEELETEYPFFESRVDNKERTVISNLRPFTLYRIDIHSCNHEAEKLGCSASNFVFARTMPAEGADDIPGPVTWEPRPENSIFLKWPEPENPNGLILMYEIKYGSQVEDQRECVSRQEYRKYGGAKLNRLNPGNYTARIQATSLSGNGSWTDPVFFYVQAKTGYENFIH

| Binder | Kd (human IGF1R ectodomain) | Kd (human ICAM-1 ectodomain) |
| --- | --- | --- |
| IGF1R-4 VHH, wild-type (VHH, anti-human IGF1R; bears Val59, Asp65 (Kabat); source: E. coli TG1, periplasm (osmotic shock), purified (IMAC)) VHH: QVKLEESGGGLVQAGGSLRLSCEVSGGTVSPTAMGWFRQAPGKEREFVGHITWSRGTTRVASSVKDRFTISRDSAKNTVYLQMNSLKSEDTAVYYCAASTFLRILPEESAYTYWGQGTQVTVSS | 0.3 nM |  |
| IGF1R-5 VHH, wild-type (VHH, anti-human IGF1R; bears Ala57, Asn82b (Kabat); source: E. coli TG1, periplasm (osmotic shock), purified (IMAC)) VHH: QVKLEESGGGLVQAGGSLRLSCAASGRTIDNYAMAWSRQAPGKDREFVATIDWGDGGARYANSVKGRFTISRDNAKGTMYLQMNNLEPEDTAVYSCAMARQSRVNLDVARYDYWGQGTQVTVSS | 0.8 nM |  |
| ICAM11-4 VHH, wild-type (VHH, anti-human ICAM-1; bears Ile57 (Kabat); source: E. coli TG1, periplasm (osmotic shock), purified (IMAC)) VHH: QVQLVESGGGLVQPGGSLRLSCAASGSISSLYVMGWYRQAPGKQRELVADITSSGSIYYVDSLKGRFTISRDNARSTVYLQMNSLEPEDTAVYYCMAHVRQDSGSEYLTYWGQGTQVTVSS |  | 0.9 nM |
| ICAM11-4 VHH I57T (SpA-engineered) (VHH, as the VHH of m6 with the stated change; numbers count on: Kabat numbering; also called ICAM11-4 I57T; SpA-engineered ICAM11-4; source: E. coli TG1, periplasm (osmotic shock), purified (IMAC); periplasmic extract for protein A chromatography) VHH: QVQLVESGGGLVQPGGSLRLSCAASGSISSLYVMGWYRQAPGKQRELVADITSSGSTYYVDSLKGRFTISRDNARSTVYLQMNSLEPEDTAVYYCMAHVRQDSGSEYLTYWGQGTQVTVSS |  | 1.3 nM |
| IGF1R-4 VHH, humanized (VHH, as the VHH of m18 with FRs reverted to human IGHV3 germline; also called humanized IGF1R-4; source: E. coli TG1, periplasm (osmotic shock), purified (IMAC); periplasmic extract for protein A chromatography) VHH: QVQLVESGGGLVQPGGSLRLSCAVSGGTVSPTAMGWFRQAPGKGLEFVGHITWSRGTTRYASSVKGRFTISRDNSKNTVYLQMNSLRAEDTAVYYCAASTFLRILPEESAYTYWGQGTLVTVSS | 0.4 nM |  |
| ICAM34-1 VHH, wild-type (VHH, anti-human ICAM-1; bears Ala57, Pro75, Gly82b (Kabat); source: E. coli TG1, periplasm (osmotic shock), purified (IMAC)) VHH: QVKLEESGGGLVQPGGSLRLSCAASGSIFSINDMGWYRQAPGKQRELVARITRDGSAAYEDSVKGRFTISRDNAPNTVFLQMNGLKPEDTAVYYCNAEIITTQTLGRMLGEYWGQGTQVTVSS |  | 32 nM |
| IGF1R-5 VHH, humanized (VHH, as the VHH of m23 with FRs reverted to human IGHV3 germline; also called humanized IGF1R-5; source: E. coli TG1, periplasm (osmotic shock), purified (IMAC); periplasmic extract for protein A chromatography) VHH: QVQLVESGGGLVQPGGSLRLSCAASGRTIDNYAMAWSRQAPGKGLEFVATIDWGDGGTRYANSVKGRFTISRDNSKNTMYLQMNSLRAEDTAVYYCAMARQSRVNLDVARYDYWGQGTLVTVSS | 0.9 nM |  |
